Results from patent US20050260697.

What was measured:
[1] = molecular target: human cardiac Troponin-I3, P19429
[2] = molecular target: human cardiac Troponin-T2, P45379
[3] = molecular target: human muscle Troponin-T1, P13805
[4] = molecular target: human muscle Troponin-T3, P45378
Sequence of human muscle Troponin-T3, P45378 (P45378 2-269): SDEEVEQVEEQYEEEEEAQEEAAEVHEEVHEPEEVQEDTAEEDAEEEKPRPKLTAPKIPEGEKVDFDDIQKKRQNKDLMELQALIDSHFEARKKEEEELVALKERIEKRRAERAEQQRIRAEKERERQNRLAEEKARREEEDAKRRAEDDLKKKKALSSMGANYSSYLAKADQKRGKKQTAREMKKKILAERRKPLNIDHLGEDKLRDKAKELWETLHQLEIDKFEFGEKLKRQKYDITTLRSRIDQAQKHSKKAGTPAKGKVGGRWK

Sequence of human muscle Troponin-T1, P13805 (P13805 whole entry): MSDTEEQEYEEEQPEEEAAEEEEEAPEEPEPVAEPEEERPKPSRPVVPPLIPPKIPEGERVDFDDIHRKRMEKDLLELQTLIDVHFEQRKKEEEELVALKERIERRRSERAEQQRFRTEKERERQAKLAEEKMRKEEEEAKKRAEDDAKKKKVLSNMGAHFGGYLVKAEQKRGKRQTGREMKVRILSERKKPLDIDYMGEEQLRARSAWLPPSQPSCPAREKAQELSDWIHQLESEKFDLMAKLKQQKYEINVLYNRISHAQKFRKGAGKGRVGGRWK
Sequence of human cardiac Troponin-I3, P19429 (P19429 whole entry, looked up): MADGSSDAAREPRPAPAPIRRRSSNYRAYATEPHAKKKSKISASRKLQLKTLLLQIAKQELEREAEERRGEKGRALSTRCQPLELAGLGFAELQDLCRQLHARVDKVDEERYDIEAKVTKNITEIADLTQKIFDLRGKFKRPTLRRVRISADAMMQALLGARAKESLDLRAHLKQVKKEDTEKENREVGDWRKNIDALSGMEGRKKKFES

Protein	in vitro protease digestion, breakdown products on gels [1]	in vitro protease digestion, breakdown products on gels [2]	stated: cleaves (breakdown bands on a gel) [2]	in vitro protease digestion, breakdown products on Coomassie stained membrane and Western blot [3]	stated: cleaves (breakdown bands on a stained membrane and a blot) [3]	in vitro protease digestion, breakdown products on Coomassie stained membrane and Western blot [4]	stated: cleaves (breakdown bands on a stained membrane and a blot) [4]
caspase-3 (protein) SGISLDNSYKMDYPEMGLCIIINNKNFHKSTGMTSRSGTDVDAANLRETFRNLKYEVRNKNDLTREEIVELMRDVSKEDHSKRSSFVCVLLSHGEEGIIFGTNGPVDLKKITNFFRGDRCRSLTGKPKLFIIQACRGTELDCGIETDSGVDDDMACHKIPVEADFLYAYSTAPGYYSWRNSKDGSWFIQSLCAMLKQYADKLEFMHILTRVNRKVATEFESFSFDATFHAKKQIPCIVSMLTKELYFYH	human cardiac Troponin-T2 and Troponin-13 were cleaved by calpain-2 and caspase-3 proteases, producing unique breakdown products	human cardiac Troponin-T2 and Troponin-13 were cleaved by calpain-2 and caspase-3 proteases, producing unique breakdown products	the Caspase-3 lane shows a band d at the 25 kDa mark that is absent from the untreated lane and the Calpain-2 lanes; the Troponin-T2 band at 30 kDa is largely kept; no bands a, b, c	–	–	–	–
calpain-1 (protein) SEEIITPVYCTGVSAQVQKQRARELGLGRHENAIKYLGQDYEQLRVRCLQSGTLFRDEAFPPVPQSLGYKDLGPNSSKTYGIKWKRPTELLSNPQFIVDGATRTDICQGALGDCWLLAAIASLTLNDTLLHRVVPHGQSFQNGYAGIFHFQLWQFGEWVDVVVDDLLPIKDGKLVFVHSAEGNEFWSALLEKAYAKVNGSYEALSGGSTSEGFEDFTGGVTEWYELRKAPSDLYQIILKALERGSLLGCSIDISSVLDMEAITFKKLVKGHAYSVTGAKQVNYRGQVVSLIRMRNPWGEVEWTGAWSDSSSEWNNVDPYERDQLRVKMEDGEFWMSFRDFMREFTRLEICNLTPDALKSRTIRKWNTTLYEGTWRRGSTAGGCRNYPATFWVNPQFKIRLDETDDPDDYGDRESGCSFVLALMQKHRRRERRFGRDMETIGFAVYEVPPELVGQPAVHLKRDFFLANASRARSEQFINLREVSTRFRLPPGEYVVVPSTFEPNKEGDFVLRFFSEKSAGTVELDDQIQANLPDEQVLSEEEIDENFKALFRQLAGEDMEISVKELRTILNRIISKHKDLRTKGFSLESCRSMVNLMDRDGNGKLGLVEFNILWNRIRNYLSIFRKFDLDKSGSMSAYEMRMAIESAGFKLNKKLYELIITRYSEPDLAVDFDNFVCCLVRLETMFRFFKTLDTDLDGVVTFDLFKWLQLTMFA	–	–	–	human muscle Troponin-T1/3 was digested by calpain-1 protease, producing unique breakdown products	Coomassie panel: the band at 35 kDa in the TnT lane weakens in the +Calpain-I lanes with time and a band near the 15 kDa mark appears; band B of the blot is mapped to TnT1 (new N-terminus AEQKRGKRQTGR)	human muscle Troponin-T1/3 was digested by calpain-1 protease, producing unique breakdown products	Coomassie panel: the band at 35 kDa in the TnT lane weakens in the +Calpain-I lanes with time; band A of the blot, just below the intact band, is mapped to TnT3 (new N-terminus APKIPEGEK)
